Assay results published in patent publication US20210130436A1 (published 2021).

Columns and labels:
[1] = molecular target: T1, human CD28 (human, UniProt P10747 19-220); assay: flow cytometry on Jurkat cells (CD28); vs CD80 WT IgV-Fc
T1 construct: Endogenous CD28 on Jurkat/IL2 reporter cells

[2] = molecular target: T2, human CTLA-4 (human, UniProt P16410 36-223); assay: flow cytometry on CHO cells stably expressing CTLA4; vs CD80 WT IgV-Fc
T2 construct: also called huCTLA4
T2 sequence (P16410 36-223): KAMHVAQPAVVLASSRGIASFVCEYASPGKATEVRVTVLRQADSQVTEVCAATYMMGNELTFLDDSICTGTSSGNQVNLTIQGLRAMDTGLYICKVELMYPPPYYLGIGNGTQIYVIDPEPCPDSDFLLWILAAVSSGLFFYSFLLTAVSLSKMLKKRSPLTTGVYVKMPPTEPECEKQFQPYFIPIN

[3] = molecular target: T3, human PD-L1 (human, UniProt Q9NZQ7 19-290); assay: flow cytometry; PD-L1 MFI over CD28 MFI
T3 construct: also called huPD-L1; CD274
T3 sequence (Q9NZQ7 19-290): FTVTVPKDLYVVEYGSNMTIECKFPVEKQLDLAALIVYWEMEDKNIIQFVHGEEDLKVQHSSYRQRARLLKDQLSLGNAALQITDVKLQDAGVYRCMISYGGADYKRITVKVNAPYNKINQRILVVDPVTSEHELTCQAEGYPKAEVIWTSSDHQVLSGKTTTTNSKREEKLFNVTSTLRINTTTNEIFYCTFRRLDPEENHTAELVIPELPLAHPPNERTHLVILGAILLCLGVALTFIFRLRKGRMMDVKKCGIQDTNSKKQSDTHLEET

[4] = molecular target: T3, human PD-L1; assay: flow cytometry on CHO cells stably expressing PD-L1
[5] = molecular target: T3, human PD-L1; assay: flow cytometry on CHO cells stably expressing PD-L1; vs CD80 WT IgV-Fc
[6] = molecular target: T1, human CD28; assay: flow cytometry on Jurkat cells (CD28)
[7] = molecular target: T2, human CTLA-4; assay: flow cytometry on CHO cells stably expressing CTLA4
[8] = molecular target: T3, human PD-L1; assay: cell-based or functional assay
[9] = molecular target: T4, human PD-L1 (human, UniProt Q9NZQ7 19-290); assay: flow cytometry, CHO cells stably expressing huPD-L1, 33.3 nM, PE anti-human Fc
T4 construct: whole, on cells; also called huPD-L1
T4 sequence (Q9NZQ7 19-290): as above

[10] = molecular target: T4, human PD-L1; assay: flow cytometry; MFI on CHO/PD-L1 over MFI on Jurkat (CD28), 33.3 nM
[11] = molecular target: T5, human CD28 (human, UniProt P10747 19-220); assay: flow cytometry, Jurkat/IL2 reporter cells (endogenous CD28), 33.3 nM, PE anti-human Fc
T5 construct: whole, on cells; Endogenous CD28 of Jurkat/IL2 reporter cells

[12] = molecular target: T6, human CTLA-4 (human, UniProt P16410 36-223); assay: flow cytometry, CHO cells stably expressing huCTLA4, 33.3 nM, PE anti-human Fc
T6 construct: whole, on cells; also called huCTLA4
T6 sequence (P16410 36-223): as the sequence (P16410 36-223) above

[13] = molecular target: T7, human PD-L1 (huPD-L1), full-length, stably expressed on CHO cells (human, UniProt Q9NZQ7 19-290); assay: flow cytometry, CHO cells expressing huPD-L1
T7 construct: whole, on cells

[14] = molecular target: T8, CD28, endogenously expressed on Jurkat/IL2 reporter cells (human, UniProt P10747 19-220); assay: flow cytometry, Jurkat/IL2 reporter cells (endogenous CD28); MFI against WT CD80 of the table
T8 construct: whole, on cells

[15] = molecular target: T9, human CTLA4 (huCTLA4), full-length, stably expressed on CHO cells (human, UniProt P16410 36-223); assay: flow cytometry, CHO cells expressing huCTLA4; MFI against WT CD80 of the table
T9 construct: whole, on cells

[16] = molecular target: T7, human PD-L1 (huPD-L1), full-length, …; assay: flow cytometry, CHO cells expressing huPD-L1; MFI against WT CD80 of the table
[17] = molecular target: T9, human CTLA4 (huCTLA4), full-length, …; assay: flow cytometry, CHO cells expressing huCTLA4
[18] = molecular target: T7, human PD-L1 (huPD-L1), full-length, …; assay: flow cytometry; MFI on PD-L1 CHO cells over MFI on Jurkat cells (CD28)
[19] = molecular target: T8, CD28, endogenously expressed on …; assay: flow cytometry, Jurkat/IL2 reporter cells (endogenous CD28)

T7 sequence (Q9NZQ7 19-290): as the sequence (Q9NZQ7 19-290) above
T9 sequence (P16410 36-223): as the sequence (P16410 36-223) above

Row | Fold change to WT CD80 [1] [fold] | Fold change to WT CD80 [2] [fold] | Ratio of PDL1:CD28 [3] [ratio] | MFI at 33.3 nM [4] [MFI] | Fold change to WT CD80 [5] [fold] | MFI at 33.3 nM [6] [MFI] | MFI at 33.3 nM [7] [MFI] | Fold Increase over WT CD80-IgV-Fc, Jurkat/IL2 + CHO/OKT3/PD-L1 Reporter Assay [8] [fold] | RLU, Jurkat/IL2 + CHO/OKT3/PD-L1 Reporter Assay, CD80 Conc 5.0 nM [8] [RLU] | Binder | further results
1 | 83.7 | 2.6 | 4 | 20400 | 439 | 4680 | 3090 | 2.63 | 1030 | CD80 E35D/M47V/N48K/V68M/K89N IgV-Fc, delta linker (Fc fusion, Fused directly to the Fc with no additional linker; also called E35D/M47V/N48K/V68M/K89N delta) VIHVTKEVKEVATLSCGHNVSVEELAQTRIYWQKDKKMVLTMMSGDVKIWPEYKNRTIFDITNNLSIMILALRPSDEGTYECVVLKYENDAFKREHLAEVTLSVKTHTCPPCPAPEAEGAPSVFLFPPKPKDTLMISRTPEVTCVVVDVSHEDPEVKFNWYVDGVEVHNAKTKPREEQYNSTYRVVSVLTVLHQDWLNGKEYKCKVSNKALPAPIEKTISKAKGQPREPQVYTLPPSREEMTKNQVSLTCLVKGFYPSDIAVEWESNGQPENNYKTTPPVLDSDGSFFLYSKLTVDKSRWQQGNVFSCSVMHEALHNHYTQKSLSLSPG | –
2 | 74.7 | 10.2 | 5 | 22500 | 484 | 4170 | 12200 | 2.77 | 1080 | CD80 E35D/D46V/M47L/V68M/L85Q/E88D IgV-Fc, delta linker (Fc fusion, Fused directly to the Fc with no additional linker; also called E35D/D46V/M47L/V68M/L85Q/E88D delta) VIHVTKEVKEVATLSCGHNVSVEELAQTRIYWQKDKKMVLTMMSGVLNIWPEYKNRTIFDITNNLSIMILALRPSDEGTYECVVQKYDKDAFKREHLAEVTLSVKTHTCPPCPAPEAEGAPSVFLFPPKPKDTLMISRTPEVTCVVVDVSHEDPEVKFNWYVDGVEVHNAKTKPREEQYNSTYRVVSVLTVLHQDWLNGKEYKCKVSNKALPAPIEKTISKAKGQPREPQVYTLPPSREEMTKNQVSLTCLVKGFYPSDIAVEWESNGQPENNYKTTPPVLDSDGSFFLYSKLTVDKSRWQQGNVFSCSVMHEALHNHYTQKSLSLSPG | –
3 | 47.1 | 23 | 9 | 22900 | 491 | 2630 | 27500 | 4.38 | 1710 | CD80 E35D/M47V/N48K/V68M/K89N IgV-Fc, EAAAK linker (Fc fusion, not shown: a dimerising Fc or GST) VIHVTKEVKEVATLSCGHNVSVEELAQTRIYWQKDKKMVLTMMSGDVKIWPEYKNRTIFDITNNLSIMILALRPSDEGTYECVVLKYENDAFKREHLAEVTLSVKADEAAAK | –
4 | 10.1 | 24.2 | 44 | 24800 | 533 | 563 | 29000 | 3.75 | 1460 | CD80 E35D/D46V/M47L/V68M/L85Q/E88D IgV-Fc, EAAAK linker (Fc fusion, not shown: a dimerising Fc or GST) VIHVTKEVKEVATLSCGHNVSVEELAQTRIYWQKDKKMVLTMMSGVLNIWPEYKNRTIFDITNNLSIMILALRPSDEGTYECVVQKYDKDAFKREHLAEVTLSVKADEAAAK | –
5 | – | – | – | – | – | – | – | – | – | E24D/Q27R/E35D/T41S/M47V/L85Q CD80 IgV-Fc (Fc fusion, not shown: a dimerising Fc or GST) VIHVTKEVKEVATLSCGHNVSVEDLARTRIYWQKDKKMVLSMMSGDVNIWPEYKNRTIFDITNNLSIVILALRPSDEGTYECVVQKYEKDAFKREHLAEVTLSVKAD | Fold change to WT [9]: 34.3 fold; MFI at 33.3 nM [9]: 2860 MFI; Ratio of PDL1:CD28 [10]: 44 ratio; Fold change to WT [11]: 1.6 fold; MFI at 33.3 nM [11]: 66 MFI; Fold change to WT CD80 [12]: 13.5 fold; MFI at 33.3 nM [12]: 13900 MFI
6 | – | – | – | – | – | – | – | – | – | S15T/H18Y/E35D/M47V/T62A/N64S/A71G/L85Q/D90N CD80 IgV-Fc (Fc fusion, not shown: a dimerising Fc or GST) VIHVTKEVKEVATLTCGYNVSVEELAQTRIYWQKDKKMVLTMMSGDVNIWPEYKNRTIFDIANSLSIVILGLRPSDEGTYECVVQKYEKNAFKREHLAEVTLSVKAD | Fold change to WT [9]: 166 fold; MFI at 33.3 nM [9]: 13900 MFI; Ratio of PDL1:CD28 [10]: 13 ratio; Fold change to WT [11]: 25.9 fold; MFI at 33.3 nM [11]: 1070 MFI; Fold change to WT CD80 [12]: 10.7 fold; MFI at 33.3 nM [12]: 11000 MFI
7 | – | – | – | – | – | – | – | – | – | variant CD80 IgV-Fc E35D/M47V/N48K/V68M/L85M (Fc fusion, not shown: small tags and cut ends; a dimerising Fc or GST) VIHVTKEVKEVATLSCGHNVSVEELAQTRIYWQKDKKMVLTMMSGDVKIWPEYKNRTIFDITNNLSIMILALRPSDEGTYECVVMKYEKDAFKREHLAEVTLSVKAD | MFI at 33.3 nM [13]: 7620 MFI; Fold change to WT CD80 [14]: 7.8 fold; Fold change to WT CD80 [15]: 8.9 fold; Fold change to WT CD80 [16]: 148 fold; MFI at 33.3 nM [17]: 15600 MFI; Ratio of PDL1:CD28 [18]: 31.1 ratio; MFI at 33.3 nM [19]: 245 MFI
